Measurements published in US20230416362A1 (INDUSTRIAL TECHNOLOGY RESEARCH INSTITUTE, published 2023).

Assays:
[1] = molecular target: T1, human TIGIT expressed on cells (TIGIT/Jurkat cells; MJ[G11] cells; PBMC T cells) (human, UniProt Q495A1 22-244); test: flow cytometry on TIGIT/Jurkat cells
T1 construct: The cell line is named under assay; also called human TIGIT-expressing Jurkat cells
T1 sequence: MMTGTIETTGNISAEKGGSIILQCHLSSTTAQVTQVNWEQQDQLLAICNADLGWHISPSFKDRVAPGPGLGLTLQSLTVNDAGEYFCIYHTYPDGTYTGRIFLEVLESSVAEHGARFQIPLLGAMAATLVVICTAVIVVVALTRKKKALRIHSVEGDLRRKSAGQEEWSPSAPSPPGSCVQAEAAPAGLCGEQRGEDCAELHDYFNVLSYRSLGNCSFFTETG
Method: Sequential dilutions of Protein A column-purified 7D4, 2C9, and 3A9 antibodies were separately incubated with 5×10⁵ of human TIGIT-expressing Jurkat cells (TIGIT/Jurkat) in 50 μl of FACS buffer (0.2% BSA in Dulbecco's phosphate-buffered saline (DPBS) containing 0.09% sodium azide) on ice for 1 hour. After washing, the cells were stained with anti-mouse IgG conjugated with PE dyes and antibody binding strength was analyzed by flow cytometry.

[2] = molecular target: T2, TIGIT-biotin (TIGIT:CD155 Homogeneous Assay Kit, #72029) (human, UniProt Q495A1 22-141, limits assumed, biotin (site not stated)); test: AlphaLISA competition: TIGIT-biotin with antibody, then histidine-tagged CD155 as competitor
T2 construct: Kit reagent; also called human TIGIT
T2 chain: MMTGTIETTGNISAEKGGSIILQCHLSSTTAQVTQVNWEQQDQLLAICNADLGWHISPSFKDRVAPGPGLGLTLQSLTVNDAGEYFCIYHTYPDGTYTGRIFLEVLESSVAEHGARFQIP
Method: To evaluate inhibition of binding of TIGIT to CD155 by anti-TIGIT antibodies, AlphaLISA assays were performed using a TIGIT:CD155 Homogeneous Assay Kit (PBS Biosciences, #72029). Aliquots (6 μl) of solution containing TIGIT-biotin (final concentration 0.2 ng/μl) and 4-fold serial dilution of the test antibodies (final volume 2 μl) were added into a 384-well plate. The plates were covered with a lid and incubated at room temperature for 30 min. Then, 2 μl of histidine-tagged CD155 were added (final concentration 0.05 ng/μl) into each well and incubated at room temperature for 60 min. Finally, aliquots (5 μl) of streptavidin-conjugated donor beads (final concentration 10 μg/ml) and 5 μl of anti-His tag acceptor beads (final concentration 20 μg/ml) were added and the plate was incubated at room temperature for 30 min in the dark. AlphaLISA signals were measured on an EnSpire Alpha 2390 (Perkin-Elmer Life Sciences). 15A6 (U.S. Pat. No. 10,189,902) and MBSA43 (Thermo Fisher Scientific, #16-9500-82) were used as reference antibodies.
These antibodies were selected for further functional studies.

[3] = molecular target: T3, human TIGIT IgV domain Y106A (human, UniProt Q495A1 22-141, limits assumed); test: ELISA on TIGIT IgV point mutants
T3 construct: Made in Expi293F cells, purified on Strep-Tactin XT; Limits of the IgV domain not readable, whole entry named; also called Y106 single alanine substitution mutant
T3 chain: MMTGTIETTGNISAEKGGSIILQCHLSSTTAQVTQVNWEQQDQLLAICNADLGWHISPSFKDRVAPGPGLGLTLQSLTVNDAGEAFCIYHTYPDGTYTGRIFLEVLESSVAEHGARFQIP
Method: (§1) To further identify the amino acid residues of TIGIT that interact with the recombinant 7D4 mIgG2a antibody, single alanine substitution mutants were generated in the human TIGIT IgV domain by site-directed mutagenesis using standard molecular techniques. ELISA binding assays were then performed to assess 7D4 binding strength.
(§2) To identify the amino acid residues of TIGIT that interact with the humanized 7D4 variant, 1A11 (in human IgG1-DLE isotype), ELISA binding assays with the single alanine substitution mutants were performed to assess 1A11 binding strength. […] Similar to the parental mouse 7D4 antibody, Q56 and Y106 single alanine substitution mutants completely abolished the binding of 1A11.

[4] = molecular target: T4, human TIGIT IgV domain Q56A (human, UniProt Q495A1 22-141, limits assumed); test: ELISA on TIGIT IgV point mutants
T4 construct: Made in Expi293F cells, purified on Strep-Tactin XT; Limits of the IgV domain not readable, whole entry named; also called Q56 single alanine substitution mutant
T4 chain: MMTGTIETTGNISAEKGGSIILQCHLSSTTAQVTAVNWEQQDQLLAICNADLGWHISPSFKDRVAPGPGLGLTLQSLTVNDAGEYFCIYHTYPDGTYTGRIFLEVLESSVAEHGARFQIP
Method: as §1, §2

[5] = molecular target: T5, human TIGIT IgV domain G74A (human, UniProt Q495A1 22-141, limits assumed); test: ELISA on TIGIT IgV point mutants
T5 construct: Made in Expi293F cells, purified on Strep-Tactin XT; Limits of the IgV domain not readable, whole entry named; also called G74 single alanine substitution mutant
T5 chain: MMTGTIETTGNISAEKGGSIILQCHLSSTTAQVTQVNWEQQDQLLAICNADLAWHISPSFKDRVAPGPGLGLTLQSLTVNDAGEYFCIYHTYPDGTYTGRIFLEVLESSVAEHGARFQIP
Method: as §1, §2

[6] = molecular target: T6, human TIGIT IgV domain Y110A (human, UniProt Q495A1 22-141, limits assumed); test: ELISA on TIGIT IgV point mutants
T6 construct: Made in Expi293F cells, purified on Strep-Tactin XT; Limits of the IgV domain not readable, whole entry named; also called Y110 single alanine substitution mutant
T6 chain: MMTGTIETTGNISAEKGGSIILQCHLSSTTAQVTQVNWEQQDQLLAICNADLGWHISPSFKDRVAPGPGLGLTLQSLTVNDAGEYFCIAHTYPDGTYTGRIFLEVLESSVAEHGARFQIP
Method: as §1, §2

[7] = molecular target: T7, human TIGIT IgV domain H111 single alanine substitution mutant (human, UniProt Q495A1 22-141, limits assumed); test: ELISA on TIGIT IgV point mutants
T7 construct: Printed as "H111" in the list of mutants; the text calls it a single alanine substitution mutant; Limits of the IgV domain not readable, whole entry named; also called H111A
T7 chain: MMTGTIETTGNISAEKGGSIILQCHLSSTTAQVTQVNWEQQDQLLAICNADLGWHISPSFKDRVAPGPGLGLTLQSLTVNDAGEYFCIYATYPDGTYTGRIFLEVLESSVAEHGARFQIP
Method: as §1, §2

[8] = molecular target: T8, mTIGIT (ELISA of Table 7) (mouse, UniProt P86176 29-145, limits assumed); test: ELISA binding
T8 construct: also called mouse TIGIT
T8 sequence (looked up): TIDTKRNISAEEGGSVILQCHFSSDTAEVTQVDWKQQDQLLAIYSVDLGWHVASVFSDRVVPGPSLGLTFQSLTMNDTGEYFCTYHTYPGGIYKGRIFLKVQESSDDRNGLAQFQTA

[9] = molecular target: T9, hTIGIT (ELISA of Table 7) (human, UniProt Q495A1 22-141, limits assumed); test: ELISA binding
T9 construct: whole entry named; also called human TIGIT
T9 chain: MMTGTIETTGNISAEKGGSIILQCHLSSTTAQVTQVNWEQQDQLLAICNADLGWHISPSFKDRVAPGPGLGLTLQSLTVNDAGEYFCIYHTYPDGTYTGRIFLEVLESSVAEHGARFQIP

[10] = molecular target: T8, mTIGIT (ELISA of Table 7); test: mTIGIT/mCD155 competition ELISA; competitor mCD155

B1: 2C9 (antibody, V domains shown)
VH: DIQLKQSGAELVRPGASVKLSCKASGYTFTDSYINWVKQRPGQGLEWIARFYPGSGNTYYNEKFKGKATLTAEKSSSTAYMQLSSLTSEDSAVYFCAREAWLLFYGMDYWGQGTTVTVSS
VL: DIVLTQSPAIMSASPGEKVTISCSANSSVSYMYWYQQKPGSSPKPWIYRTSNLASGVPARFSGSGSGTSYSLTISSMEAEDAATYYCQQYHSYPLTFGAGTKLELK
notes: Mouse monoclonal antibody from hybridoma clone 2C9, Protein A purified; also called anti-TIGIT monoclonal antibody 2C9
Kd [1]: 2 nM | IC50 [2]: 0.4 nM

B2: recombinant 7D4 mIgG2a antibody (antibody, V domains shown)
VH: QVQLKHSGAELVRPGTSVKMSCKASGYTFTNYWIGWAKQRPGHGLEWIGDIYPGSSFTNSNEKFKGKATLTADKSSSTAYMQFSSLTSEDSAIYYCAKLGRGYWYFDVWGTGTSVTVSA
VL: DIVLTQSPAIMSASLGEEITLTCSASSSVSYIHWYQQKSGTSPKLLIYTTSNLASGVPSRFSGSGSGTFYSLTISSVEAEDAADYYCHQWSRYPTFGGGTKLEIK
notes: Recombinant form with mouse IgG2a constant region (vector pFUSEss-CHIg-mG2a); also called recombinant 7D4 antibody (in mouse IgG2a isotype)
binding result [3]: no binding | binding result [4]: no binding | reduction in binding against the wild type [5]: 50% | reduction in binding against the wild type [6]: > 50% | reduction in binding against the wild type [7]: > 50%

B3: 1G3 mIgG2a-DLE (antibody, V domains shown)
VH: DIQLVQSGGGLVKPGGSLRLSCAASGYTFTNYWIGWVRQTPGKGLEWVGDIYPGSSFTNSNEKFKGRFTISADKSKNTAYLQMNSLRAEDTAVYYCARDMVGYWYFDVWGQGTLVTVSS
VL: DIVLTQSPATLSASLGERATLSCSASSSVSYIHWYQQKPGQAPKLLIYTTSNLASGVPSRFSGSGSGTDFTLTISSLEAEDFATYYCHQWSRYPTFGGGTKLEIK
notes: Mouse IgG2a isotype with DLE (S239D/A330L/I332E) mutations at the Fc region
EC50 [8]: 3.6 nM | EC50 [9]: 9.4 nM | IC50 [10]: 61.7 nM

B4: 1A11 hIgG1-DLE (antibody, V domains shown)
VH: EVQLVQSGGGLVKPGGSLRLSCAASGYTFTNYWIGWVRQTPGKGLEWVGDIYPGSSFTNSNEKFKGRFTISADKSKNTAYLQMNSLRAEDTAVYYCARLGRGYWYFDVWGQGTLVTVSS
VL: DIVLTQSPATLSASLGERATLSCSASSSVSYIHWYQQKPGQAPKLLIYTTSNLASGVPSRFSGSGSGTDFTLTISSLEAEDFATYYCQLFRSGSAFGGGTKLEIKR
notes: Human IgG1 with DLE mutations at the Fc region, expressed in CHO-S cells; also called humanized 7D4 variant 1A11 (in human IgG1-DLE isotype)
binding result [3]: no binding | binding result [4]: no binding | reduction in binding against the wild type [5]: > 40% | reduction in binding against the wild type [6]: > 40% | reduction in binding against the wild type [7]: > 40%

B5: hz7D4 mIgG2a (antibody, V domains shown)
VH: EVQLVQSGGGLVKPGGSLRLSCAASGYTFTNYWIGWVRQTPGKGLEWVGDIYPGSSFTNSNEKFKGRFTISADKSKNTAYLQMNSLRAEDTAVYYCARLGRGYWYFDVWGQGTLVTVSS
VL: DIVLTQSPATLSASLGERATLSCSASSSVSYIHWYQQKPGQAPKLLIYTTSNLASGVPSRFSGSGSGTDFTLTISSLEAEDFATYYCHQWSRYPTFGGGTKLEIK
EC50 [8]: 217 nM | EC50 [9]: 0.3 nM

B6: 2F1 mIgG2a-DLE (antibody, V domains shown)
VH: DIQLVQSGGGLVKPGGSLRLSCAASGYTFTNYWIGWVRQTPGKGLEWVGDIYPGSSFTNSNEKFKGRFTISADKSKNTAYLQMNSLRAEDTAVYYCARVIVGYWYFDVWGQGTLVTVSS
VL: DIVLTQSPATLSASLGERATLSCSASSSVSYIHWYQQKPGQAPKLLIYTTSNLASGVPSRFSGSGSGTDFTLTISSLEAEDFATYYCHQWSRYPTFGGGTKLEIK
notes: as for B3
EC50 [8]: 1.1 nM | EC50 [9]: 464 nM | IC50 [10]: 33.8 nM

B7: 3H2 mIgG2a-DLE (antibody, V domains shown)
VH: DIQLVQSGGGLVKPGGSLRLSCAASGYTFTNYWIGWVRQTPGKGLEWVGDIYPGSSFTNSNEKFKGRFTISADKSKNTAYLQMNSLRAEDTAVYYCARIRLGYWYFDVWGQGTLVTVSS
VL: DIVLTQSPATLSASLGERATLSCSASSSVSYIHWYQQKPGQAPKLLIYTTSNLASGVPSRFSGSGSGTDFTLTISSLEAEDFATYYCHQWSRYPTFGGGTKLEIK
notes: as for B3
EC50 [8]: 0.7 nM | EC50 [9]: 0.9 nM | IC50 [10]: 12.4 nM

B8: 3A9 (antibody, V domains shown)
VH: QVQLQQPGAELVRPGSSVKLSCKASGYTFTSYWMHWVKQRPIQGLEWIGNIDPSDSATHYNQKFKDKATLTVDKSSSTAYMHLSSLTSEDSAVYYCARTGIDYGSSYFDYWGQGTILTVSS
VL: DIVLTQSPASLAVSLGQRATISCRASQSVSTSSYSYIHWYQQKPGQPPKLLIKYASNLESGVPARFSGSGSGTDFTLNIHPVEEEDTATYYCQHNWEIPRTFGGGTKLEIK
notes: Mouse monoclonal antibody from hybridoma clone 3A9, Protein A purified; also called anti-TIGIT monoclonal antibody 3A9
Kd [1]: 1.86 nM | IC50 [2]: 0.55 nM
